Results from article PMC11404569, “ECT2 peptide sequences outside the YTH domain regulate its m6A-RNA binding”.

T1: ECT2-108 (Arabidopsis thaliana, UniProt Q9LJE5 108-667)
T1 sequence: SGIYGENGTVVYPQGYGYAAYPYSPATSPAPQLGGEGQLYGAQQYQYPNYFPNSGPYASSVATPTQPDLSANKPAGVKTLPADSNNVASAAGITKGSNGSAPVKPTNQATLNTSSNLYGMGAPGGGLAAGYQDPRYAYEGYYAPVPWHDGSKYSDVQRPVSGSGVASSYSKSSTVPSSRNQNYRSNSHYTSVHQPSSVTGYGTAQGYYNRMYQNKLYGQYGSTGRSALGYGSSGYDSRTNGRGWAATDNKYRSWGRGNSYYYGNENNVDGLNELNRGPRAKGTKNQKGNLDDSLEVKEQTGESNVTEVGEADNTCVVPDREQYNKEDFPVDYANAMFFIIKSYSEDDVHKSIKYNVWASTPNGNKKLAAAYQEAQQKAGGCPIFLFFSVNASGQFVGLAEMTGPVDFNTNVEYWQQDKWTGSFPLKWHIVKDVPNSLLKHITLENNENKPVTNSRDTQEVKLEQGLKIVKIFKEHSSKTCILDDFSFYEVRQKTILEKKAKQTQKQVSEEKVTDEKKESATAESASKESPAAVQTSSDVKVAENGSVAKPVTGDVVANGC

T2: ECT2-303 (Arabidopsis thaliana, UniProt Q9LJE5 303-667)
T2 sequence: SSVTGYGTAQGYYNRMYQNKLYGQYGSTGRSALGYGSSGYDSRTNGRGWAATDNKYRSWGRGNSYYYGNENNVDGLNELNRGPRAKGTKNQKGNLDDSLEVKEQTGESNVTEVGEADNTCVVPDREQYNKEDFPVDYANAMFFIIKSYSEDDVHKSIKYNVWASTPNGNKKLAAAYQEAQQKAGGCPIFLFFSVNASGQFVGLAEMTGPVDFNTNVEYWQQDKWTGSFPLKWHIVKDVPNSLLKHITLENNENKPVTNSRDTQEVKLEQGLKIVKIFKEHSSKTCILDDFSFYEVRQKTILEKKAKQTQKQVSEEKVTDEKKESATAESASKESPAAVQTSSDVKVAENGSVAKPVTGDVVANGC

T3: ECT2-Fl (untagged) (Arabidopsis thaliana, UniProt Q9LJE5 1-667)
T3 sequence: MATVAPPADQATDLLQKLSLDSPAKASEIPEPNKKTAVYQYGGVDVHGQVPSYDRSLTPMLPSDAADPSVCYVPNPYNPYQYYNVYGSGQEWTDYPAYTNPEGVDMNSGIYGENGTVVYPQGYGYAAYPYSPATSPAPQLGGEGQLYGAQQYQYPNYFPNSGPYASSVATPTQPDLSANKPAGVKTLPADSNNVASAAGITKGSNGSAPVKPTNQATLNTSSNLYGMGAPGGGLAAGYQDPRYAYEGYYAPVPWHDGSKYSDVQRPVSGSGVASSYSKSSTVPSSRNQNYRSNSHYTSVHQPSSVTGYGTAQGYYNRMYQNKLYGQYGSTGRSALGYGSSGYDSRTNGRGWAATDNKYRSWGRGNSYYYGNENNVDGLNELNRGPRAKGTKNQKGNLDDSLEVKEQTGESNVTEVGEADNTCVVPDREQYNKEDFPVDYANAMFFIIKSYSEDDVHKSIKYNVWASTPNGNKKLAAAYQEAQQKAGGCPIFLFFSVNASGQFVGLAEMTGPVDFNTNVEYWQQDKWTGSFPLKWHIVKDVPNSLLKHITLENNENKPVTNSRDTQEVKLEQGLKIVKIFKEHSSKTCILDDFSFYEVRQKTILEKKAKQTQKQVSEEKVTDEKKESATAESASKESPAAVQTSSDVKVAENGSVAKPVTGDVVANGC

T4: ECT2-444 (Arabidopsis thaliana, UniProt Q9LJE5 444-580)
T4 sequence: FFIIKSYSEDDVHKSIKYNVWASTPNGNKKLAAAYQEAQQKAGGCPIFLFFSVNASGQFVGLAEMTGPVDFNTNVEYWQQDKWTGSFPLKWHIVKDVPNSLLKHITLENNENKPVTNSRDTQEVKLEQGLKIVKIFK

T5: ECT2-204 (Arabidopsis thaliana, UniProt Q9LJE5 204-667)
T5 sequence: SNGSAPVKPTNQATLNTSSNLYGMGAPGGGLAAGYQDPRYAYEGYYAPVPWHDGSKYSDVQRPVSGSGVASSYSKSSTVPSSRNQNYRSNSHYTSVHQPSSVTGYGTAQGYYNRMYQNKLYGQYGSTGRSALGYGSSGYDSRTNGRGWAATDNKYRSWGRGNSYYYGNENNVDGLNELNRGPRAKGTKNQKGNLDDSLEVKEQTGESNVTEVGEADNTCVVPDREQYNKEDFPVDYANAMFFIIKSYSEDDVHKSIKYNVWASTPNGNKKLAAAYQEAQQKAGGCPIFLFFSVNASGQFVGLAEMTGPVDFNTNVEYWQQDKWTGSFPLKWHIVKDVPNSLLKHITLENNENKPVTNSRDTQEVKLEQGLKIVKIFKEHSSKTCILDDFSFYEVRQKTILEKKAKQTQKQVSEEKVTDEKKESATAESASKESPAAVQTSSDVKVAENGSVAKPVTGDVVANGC

T6: ECT2-376 (Arabidopsis thaliana, UniProt Q9LJE5 376-667)
T6 sequence: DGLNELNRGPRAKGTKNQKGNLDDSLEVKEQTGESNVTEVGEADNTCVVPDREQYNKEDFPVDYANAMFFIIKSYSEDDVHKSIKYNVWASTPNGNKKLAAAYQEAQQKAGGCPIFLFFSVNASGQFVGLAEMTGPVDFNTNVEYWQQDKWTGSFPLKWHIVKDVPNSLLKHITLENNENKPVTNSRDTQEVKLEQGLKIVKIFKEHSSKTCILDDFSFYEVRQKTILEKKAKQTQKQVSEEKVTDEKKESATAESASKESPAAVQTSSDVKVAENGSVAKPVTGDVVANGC

T7: ECT2-424 (His-SUMO) (Arabidopsis thaliana, UniProt Q9LJE5 424-610)
T7 sequence: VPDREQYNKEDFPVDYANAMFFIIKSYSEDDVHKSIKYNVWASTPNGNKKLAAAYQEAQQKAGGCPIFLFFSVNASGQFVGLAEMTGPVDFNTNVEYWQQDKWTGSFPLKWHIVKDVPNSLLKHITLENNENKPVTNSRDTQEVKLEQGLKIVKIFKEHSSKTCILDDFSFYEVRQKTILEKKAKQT


Legend:
ECT2-108 [1] = target: T1, ECT2-108; experiment: EMSA; up to 500 nM; EMSA: 10 nM FAM-RNA; binding buffer 10 mM HEPES pH 8.0, 50 mM KCl, 1 mM EDTA, 0.05% Triton X-100, 5% glycerol, 10 µg/mL salmon DNA, 1 mM DTT, 40 U/mL RNasin; 20 min on ice; native 8% acrylamide TBE gel at 4°C; settings: protein: recombinant; tags: N-terminal His-SUMO; label: 5' FAM
ECT2-303 [2] = target: T2, ECT2-303; experiment: as above; settings: protein: recombinant; tags: N-terminal His-SUMO; label: 5' FAM
ECT2-Fl (untagged) = target: T3, ECT2-Fl (untagged); experiment: as above; settings: protein: recombinant; tags: none (His-SUMO cleaved by TEV); label: 5' FAM
[3] = target: YTHDC1 extended YTH (hDC1) (Homo sapiens, UniProt Q96MU7 345-507); experiment: EMSA; up to 400 nM; EMSA: 10 nM FAM-RNA; binding buffer 10 mM HEPES pH 8.0, 50 mM KCl, 1 mM EDTA, 0.05% Triton X-100, 5% glycerol, 10 µg/mL salmon DNA, 1 mM DTT, 40 U/mL RNasin; 20
ECT2-108 [4] = target: T1, ECT2-108; experiment: EMSA; affinity similar to ECT2-204; EMSA: 10 nM FAM-RNA; binding buffer 10 mM HEPES pH 8.0, 50 mM KCl, 1 mM EDTA, 0.05% Triton X-100, 5% glycerol, 10 µg/mL salmon DNA, 1 mM DTT, 40 U/mL RNasin; 20 min on ice; native 8% acrylamide TBE gel at 4°C; settings: protein: recombinant; tags: N-terminal His-SUMO; label: 5' FAM
ECT2-444 = target: T4, ECT2-444; experiment: EMSA; up to 800 nM; EMSA: 10 nM FAM-RNA; binding buffer 10 mM HEPES pH 8.0, 50 mM KCl, 1 mM EDTA, 0.05% Triton X-100, 5% glycerol, 10 µg/mL salmon DNA, 1 mM DTT, 40 U/mL RNasin; 20 min on ice; native 8% acrylamide TBE gel at 4°C; settings: protein: recombinant; tags: N-terminal His-SUMO; label: 5' FAM
ECT2-303 [5] = target: T2, ECT2-303; experiment: EMSA; apparent Kd from free probe; EMSA: 10 nM FAM-RNA; binding buffer 10 mM HEPES pH 8.0, 50 mM KCl, 1 mM EDTA, 0.05% Triton X-100, 5% glycerol, 10 µg/mL salmon DNA, 1 mM DTT, 40 U/mL RNasin; 20 min on ice; native 8% acrylamide TBE gel at 4°C; settings: protein: recombinant; tags: N-terminal His-SUMO; label: 5' FAM
ECT2-204 = target: T5, ECT2-204; experiment: EMSA; EMSA: 10 nM FAM-RNA; binding buffer 10 mM HEPES pH 8.0, 50 mM KCl, 1 mM EDTA, 0.05% Triton X-100, 5% glycerol, 10 µg/mL salmon DNA, 1 mM DTT, 40 U/mL RNasin; 20 min on ice; native 8% acrylamide TBE gel at 4°C; settings: protein: recombinant; tags: N-terminal His-SUMO; label: 5' FAM
ECT2-376 = target: T6, ECT2-376; experiment: EMSA; no stable complex; EMSA: 10 nM FAM-RNA; binding buffer 10 mM HEPES pH 8.0, 50 mM KCl, 1 mM EDTA, 0.05% Triton X-100, 5% glycerol, 10 µg/mL salmon DNA, 1 mM DTT, 40 U/mL RNasin; 20 min on ice; native 8% acrylamide TBE gel at 4°C; settings: protein: recombinant; tags: N-terminal His-SUMO; label: 5' FAM
ECT2-424 (His-SUMO) = target: T7, ECT2-424 (His-SUMO); experiment: as above; settings: protein: recombinant; tags: N-terminal His-SUMO; label: 5' FAM

Binder	binding result (ECT2-303 [2])	Kd (ECT2-303 [5])	binding result (ECT2-376)	binding result (ECT2-424 (His-SUMO))	other results
AUGGGCCGUUCAUCUGCUAAAAGGACUGCUUUUGGGGCUUGU (ssRNA, thiol-protected 3' bases (*G*U)) [Probe I (A)]	no binding				binding result (ECT2-108 [1]): no binding; binding result (ECT2-Fl (untagged)): no binding
AUGGGCCGUUCAUCUGCUAAAAGGACUGCUUUUGGGGCUUGU (ssRNA, m6A at position 25; thiol-protected 3' bases (*G*U)) [Probe I m6A]		55 ± 7 nM			binding result [3]: binds; binding signal (ECT2-108 [4]): ~3 fold Kd vs ECT2-Fl; binding result (ECT2-444): no binding; binding signal (ECT2-204): ~5 fold Kd vs ECT2-303
AAGGGCCGAACAACAGCAAAAAGGACUGCAAAAGGGGCAAGA (ssRNA, thiol-protected 3' bases (*G*A)) [Probe III (A)]	no binding		no binding	no binding	
AAGGGCCGAACAACAGCAAAAAGGACUGCAAAAGGGGCAAGA (ssRNA, m6A at position 25; thiol-protected 3' bases (*G*A)) [Probe III m6A]		39 ± 2 nM			
AUGUGUCUUUCAUGUACUAAAAGGACUGCUCUUGUGUCUUGU (ssRNA, thiol-protected 3' bases (*G*U)) [Probe IV (A)]			no binding	no binding	
AUGUGUCUUUCAUGUACUAAAAGGACUGCUCUUGUGUCUUGU (ssRNA, m6A at position 25; thiol-protected 3' bases (*G*U)) [Probe IV m6A]		85 ± 5 nM			
